# According to US10174106B2, “Anti-neurotensin long fragment antibodies and uses thereof” (INSERM (INSTITUT NATIONAL DE LA SANTÉ ET DE LA RECHERCHE …, priority 2014, dated 2019):
# B1: FLp26-8.2: NTS monoclonal antibody directed against NTS long fragment; VH SEQ ID NO:1, VL SEQ ID NO:5 (antibody, V domains shown)
# VH: QIQLVQSGPELKKPGETVKISCKASGYTFTNYGMNWVKQAPGKGLKWMGWITTNTGEPTYAEEFKGRFAFSLETSASTAYLQINNLKNEDTATYFCARRAFAMDYWGQGTSVTVSS
# VL: DIVMTQAAPSVPVTPGESVSISCRSSKSLLHSNGNTYLYWFLQRPGQSPQLLIYRMSNLASGVPDRFSGSGSGTAFTLRISRVEAEDVGVYYCMQHLEYPYTFGGGTKLEIK
# modifications: Synthetic VH Sequence; Synthetic VL sequence
# Legend:
# LNM-R tumors [1] = assay: Cisplatin test, LNM-R xenograft; assay type: in vivo, NMRI nu/nu mice
# Method: (§1) Cisplatin test, 1×10^6 LMN-R cells and 1×10^6 R-SI NTSR1 were subcutaneously inoculated in NMRI nu/nu mice, LMN-R in the left flank and R-SI NTSR1 in the right flank. When tumors generated by LMN-R reached an average volume of 95 mm^3, mice were randomized in 5 groups of 8 to 10 mice. Group 1 was administered with PBS, group 2 with antibody FLp26-8.2 (i.p. every other day, 15 mg/kg) for total of 13 times and group 3 with mouse IgG (i.p. every other day, 15 mg/kg). Group 4 was administered with PBS and cisplatin (1 mg/kg at day 1,3 5 7, 15, 17, and 19) and groups 5 with antibody FLp26-8.2 (i.p. every other day, 15 mg/kg) and cisplatin (1 mg/kg at day 1,3 5 7, 15, 17, and 19). The volume of tumor was measured every other day.
# R-SI NTSR1 tumors [2] = assay: Cisplatin test, R-SI NTSR1 xenograft; assay type: in vivo, NMRI nu/nu mice; conditions: cisplatin 1 mg/kg day 1,3,5,7,15,17,19
# Method: as §1
# [3] = system: NTS-h cells (MCF-7 overexpressing NTS); assay: Type I collagen invasion assay, MCF-7 cells overexpressing NTS (NTS-h); assay type: cell-based; conditions: NTS-overexpressing clone NTS-h; EGF 100 ng/mL; 7 μg antibody; 48 h
# Method: The mouse #4 was selected. 5 clones were obtained. Clones 1-6, 7-12, 8-2, 13-1, and 16-12 were tested. […] The experiments were repeated twice.
# (§2) The cell culture insert (8 μm, Beckton Dickinson®) was coated with type I collagen (100 μl/well, 4×10^2 μg/ml, Sigma®) at 37° C. 24 h before the assay. 1 million MCF, NTS-h, Hep 3B, HepR1a, and HepR2b cells were seeded in the insert with 250 μl of serum free medium in presence or absence of 7 μg antibodies FLp26-8.2. Outside the insert, 750 μl medium with 10% FCS was added in the well as chemoattractant. After 48 h of incubation, the non-invading cells and collagen are removed from the upper surface of the membrane by scrubbing with a cotton swab. Invading cells (those adhering to the bottom surface of the membrane) were fixed and stained with the Kwif diff stain kit (Thermo®) and the number of stained cells were counted with an inverted microscope at 200× magnification.
# MCF-7 cells = assay: Type I collagen invasion assay, MCF-7 cells; assay type: cell-based; conditions: parental MCF-7; EGF 100 ng/mL; 7 μg antibody; 48 h
# Method: as §2
# CHO-NTSR1 cells = assay: Cell proliferation of CHO-NTSR1 cells treated with NTS or LNM-R conditioned media; assay type: cell-based; conditions: 2.8 μg antibody, 60% without antibody
# Method: Cell Proliferation 20 000 CHO-NTSR1 cells were seeded in 48 well dishes, in 200 ul media 10% with FCS. […] Cells were treated for 40 h in 200 μl media with 2.5% FCS. Cellular proliferation was evaluated by counting using Beckman Coulter's cell counting.
# Hep-R1a cells = assay: Collagen invasion assay, Hep-R1a cells (Hep3B transfected with NTSR1); assay type: cell-based; conditions: expressing NTS and NTSR1, exposed to antibody
# Method: as §2
# Hep-R1b cells = assay: Collagen invasion assay, Hep-R1b cells (Hep3B transfected with NTSR1); assay type: cell-based; conditions: expressing NTS and NTSR1, exposed to antibody
# LNM-R tumors [4] = assay: Tumor xenograft, LNM-R lung cancer cells (NTS and NTSR1 expressing), left flank; assay type: in vivo, NMRI nu/nu mice; conditions: 15 mg/kg i.p. every other day
# Method: (§3) 1×10^6 LMN-R cells and 1×10^6 R-SI NTSR1 were subcutaneously inoculated in NMRI nu/nu mice, LMN-R in the left flank and R-SI NTSR1 in the right flank. When tumors generated by LMN-R reached an average volume of 40 mm^3, mice were randomized in 2 groups, then administered antibody FLp26-8.2 (i.p. every other day, 15 mg/kg) for total 8 times. PBS was used as the vehicle control. The volume of tumor was measured daily.
# R-SI NTSR1 tumors [5] = assay: Tumor xenograft, R-SI NTSR1 cells (LNM-R with NTSR1 sh-RNA), right flank; assay type: in vivo, NMRI nu/nu mice; conditions: 15 mg/kg i.p. every other day; vs PBS; same mice
# Method: as §3
# MDA-MB231 tumors = assay: Tumor xenograft, MDA-MB 231 breast cancer cells, left flank; assay type: in vivo, NMRI nu/nu mice; conditions: 15 mg/kg i.p. every other day
# Method: (§4) 3×10^6 MDA-MB 231 cells and 3×10^6 MDA si2 were subcutaneously inoculated in 100 μl of matrigel the left flank and the right flank of the NMRI nu/nu mice, respectively. When tumors generated by MDA reached an average volume of 50 mm^3, mice were randomized in 2 groups, then administered antibody FLp26-8.2 (i.p. every other day, 15 mg/kg) for total 12 times. PBS was used as the vehicle control.
# MDA Si2 tumors = assay: Tumor xenograft, MDA Si2 cells (sh NTSR1), right flank; assay type: in vivo, NMRI nu/nu mice; conditions: 15 mg/kg i.p. every other day, vs PBS
# Method: as §4
Molecule,"tumor growth rates (LNM-R tumors [1]; cisplatin 1 mg/kg day 1,3,5,7,15,17,19, IgG 15 mg/kg i.p. every other day, compared to PBS)",tumor size (R-SI NTSR1 tumors [2]),induction of invasiveness induced or not by EGF [3],induction of invasiveness induced or not by EGF (MCF-7 cells),cellular growth inhibition with antibody added (CHO-NTSR1 cells; CM (LNM-R conditioned media) treated cells) [%],cellular growth inhibition with antibody added (CHO-NTSR1 cells; NTS treated cells (10^-7 M)) [%],invasive rate of the cells (Hep-R1a cells),invasive rate of the cells (Hep-R1b cells),"tumor size as compared to controls (LNM-R tumors [4]; 8 times, vs PBS) [times smaller]",growth from D1 (LNM-R tumors [4]; PBS 24.68±4.05) [fold],doubling time after 16 days of treatment (LNM-R tumors [4]; PBS control 3.43±0.34) [days],growth rate (R-SI NTSR1 tumors [5]),size of the tumor (R-SI NTSR1 tumors [5]),"tumor growth (MDA-MB231 tumors; 24 days, compared to PBS)",growth rate from D1 (MDA-MB231 tumors; PBS 4.4±0.33) [fold],doubling time after 24 days of treatment (MDA-MB231 tumors; control 11.63±1) [days],doubling time (MDA Si2 tumors),growth rate (MDA Si2 tumors),tumor size (MDA Si2 tumors),"tumor size (LNM-R tumors [1]; FLp26-8.2 15 mg/kg i.p. every other day, with or without cisplatin 1 mg/kg)"
"N.N.[Cl][Pt][Cl] [cisplatin, reference compound]",not altered,decreased,–,–,–,–,–,–,–,–,–,–,–,–,–,–,–,–,–,–
B1,–,–,inhibited,only in the NTS-overexpressing clones,15,48,more drastic,reduced,2.6,5.92±0.99,5.96 ± 0.55,not different,not different,strong reduction,2.1±0.18,55.5 ± 32,no difference,no difference,no difference,smaller
